B1: SAGA complex subunit SPT8 (Saccharomyces cerevisiae), P38915 (parent)
chain: MDEVDDILINNQVVDDEEDDEEMLSGLENDSKQDLEGNDDGGEDEEDDDDDDEDDDDDEDEREDDDEQEDDDGEDDAARMDKTATPTNEHQHDEQKAAAAGAGGAGDSGDAVTKIGSEDVKLSDVDGGVGSREASSSTHEASANGEVYEYYKHMLNAAQIADSYNIYPTAAIPIQTHVNALAVSRGLKYLFLGGSDGYIRKYDLLNTLEGKLSLTILQKHSLAESIQNAGILQSYWENEIPQKKSEMKLSANKTDYEPKVSPVHSLEVQSECLFILSGLQNGGITMQGVRYMEGSIAHYFKGRNGHTQIVNILRLNGQEDRFLSGSWDKRLLEWDLQTGDIVNEFKKSRSELSSLEMRPLYSSVDVSGNVNSGKENENADDDMDSLFGDEDEDEKQDAGNEPVETGDGSNGEENKEQISEESLNIVYDESVFMTSGLNGSVHIWDRRMTQSPALSLERGAGVPPWCLSACWGVDGDHVYAGRRNACVEQFDLKMPSKPIHNLKLPSISGPVSCVKAMPNNKHLLCASRDNIRLYNVEIAVDASNSTTKSSKVPFLIVPGHHGGIISNLYLDPTSRFIISTSGNRGWQGNSTDTTLIYDIDLE
partner: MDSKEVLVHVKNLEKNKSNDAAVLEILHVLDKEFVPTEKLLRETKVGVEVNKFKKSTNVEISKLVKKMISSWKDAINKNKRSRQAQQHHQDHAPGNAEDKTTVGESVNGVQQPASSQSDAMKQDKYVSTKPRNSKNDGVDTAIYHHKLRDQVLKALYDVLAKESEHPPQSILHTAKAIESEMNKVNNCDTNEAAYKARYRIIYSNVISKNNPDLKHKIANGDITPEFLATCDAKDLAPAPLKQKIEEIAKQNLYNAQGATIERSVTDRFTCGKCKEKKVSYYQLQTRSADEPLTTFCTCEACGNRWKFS
B2: Transcription elongation factor SPT6 (Saccharomyces cerevisiae), P23615 (parent)
chain: MEETGDSKLVPRDEEEIVNDNDETKAPSEEEEGEDVFDSSEEDEDIDEDEDEARKVQEGFIVNDDDENEDPGTSISKKRRKHKRREREEDDRLSEDDLDLLMENAGVERTKASSSSGKFKRLKRVGDEGNAAESESDNVAASRQDSTSKLEDFFSEDEEEEESGLRNGRNNEYGRDEEDHENRNRTADKGGILDELDDFIEDDEFSDEDDETRQRRIQEKKLLREQSIKQPTQITGLSSDKIDEMYDIFGDGHDYDWALEIENEELENGNDNNEAEEEEIDEETGAIKSTKKKISLQDIYDLEDLKKNLMTEGDMKIRKTDIPERYQELRAGITDYGNMSSEDQELERNWIAEKISVDKNFDANYDLTEFKEAIGNAIKFITKENLEVPFIYAYRRNYISSREKDGFLLTEDDLWDIVSLDIEFHSLVNKKDYVQRFYAELHIDDPIVTEYFKNQNTASIAELNSLQDIYDYLEFKYANEINEMFINHTGKTGKKHLKNSSYEKFKASPLYQAVSDIGISAEDVGENISSQHQIHPPVDHPSSKPVEVIESILNANSGDLQVFTSNTKLAIDTVQKYYSLELSKNTKIREKVRSDFSKYYLADVVLTAKGKKEIQKGSLYEDIKYAINRTPMHFRRDPDVFLKMVEAESLNLLSVKLHMSSQAQYIEHLFQIALETTNTSDIAIEWNNFRKLAFNQAMDKIFQDISQEVKDNLTKNCQKLVAKTVRHKFMTKLDQAPFIPNVRDPKIPKILSLTCGQGRFGADAIIAVYVNRKGDFIRDYKIVDNPFDKTNPEKFEDTLDNIIQSCQPNAIGINGPNPKTQKFYKRLQEVLHKKQIVDSRGHTIPIIYVEDEVAIRYQNSERAAQEFPNKPPLVKYCIALARYMHSPLLEYANLTSEEVRSLSIHPHQNLLSSEQLSWALETAFVDIVNLVSVEVNKATDNNYYASALKYISGFGKRKAIDFLQSLQRLNEPLLARQQLITHNILHKTIFMNSAGFLYISWNEKRQKYEDLEHDQLDSTRIHPEDYHLATKVAADALEYDPDTIAEKEEQGTMSEFIELLREDPDRRAKLESLNLESYAEELEKNTGLRKLNNLNTIVLELLDGFEELRNDFHPLQGDEIFQSLTGESEKTFFKGSIIPVRVERFWHNDIICTTNSEVECVVNAQRHAGAQLRRPANEIYEIGKTYPAKVIYIDYANITAEVSLLDHDVKQQYVPISYSKDPSIWDLKQELEDAEEERKLMMAEARAKRTHRVINHPYYFPFNGRQAEDYLRSKERGEFVIRQSSRGDDHLVITWKLDKDLFQHIDIQELEKENPLALGKVLIVDNQKYNDLDQIIVEYLQNKVRLLNEMTSSEKFKSGTKKDVVKFIEDYSRVNPNKSVYYFSLNHDNPGWFYLMFKINANSKLYTWNVKLTNTGYFLVNYNYPSVIQLCNGFKTLLKSNSSKNRMNNYR
partner: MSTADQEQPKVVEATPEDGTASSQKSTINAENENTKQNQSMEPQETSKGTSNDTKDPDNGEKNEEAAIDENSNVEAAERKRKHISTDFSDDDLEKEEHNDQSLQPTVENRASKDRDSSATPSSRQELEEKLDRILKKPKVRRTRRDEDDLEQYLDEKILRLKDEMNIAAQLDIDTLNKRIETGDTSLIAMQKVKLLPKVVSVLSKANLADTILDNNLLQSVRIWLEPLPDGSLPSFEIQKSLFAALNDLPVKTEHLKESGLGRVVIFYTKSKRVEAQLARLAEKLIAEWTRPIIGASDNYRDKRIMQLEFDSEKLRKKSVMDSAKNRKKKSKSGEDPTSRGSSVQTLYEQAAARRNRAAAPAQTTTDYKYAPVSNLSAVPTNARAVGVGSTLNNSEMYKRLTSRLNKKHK
B3: Mediator of RNA polymerase II transcription subunit 13 (Saccharomyces cerevisiae), P38931 (parent)
chain: MSSDASTYRLEDVLSSFYRVEKIKKINYHQYISKAQNDQWSIQMEFMLRKQDPKTLVALLSRDLWCFSINDDPVPTPPAIEHKPVSPDKIGTFTADYSKPNLPPHYALFLKALRRKIYINLALGSHNKLIQFGNACISLSGVPNYLVQLEPHLFVNGDLTVSLCAKNMGLVPMKEENLEESFLSKHALYLAPSGIRMHLAPASKQGYLITPPKHTELLLTTLSVSHGINLQNKKNLKWVAVVPDLGHLNGHTPTIASYLTPLLEAKKLVWPLHLIFAQPVADIENSTSGDPSEFHCLQDALDAIDDFIQLKQTAAYRTPGSSGVLSSNIAGTNPLSSDGAYTEQFQHYKNNSISSQPASYHSVQETNKISPKDFSPNFTGIDKLMLSPSDQFAPAFLNTPNNNINENELFNDRKQTTVSNDLENSPLKTELEANGRSLEKVNNSVSKTGSVDTLHNKEGTLEQREQNENLPSDKSDSMVDKELFGEDEDEDLFGDSNKSNSTNESNKSISDEITEDMFEMSDEEENNNNKSINKNNKEMHTDLGKDIPFFPSSEKPNIRTMSGTTKRLNGKRKYLDIPIDEMTLPTSPLYMDPGAPLPVETPRDRRKSVFAPLNFNPIIENNVDNKYKSGGKFSFSPLQKEEALNFDISMADLSSSEEEEDEEENGSSDEDLKSLNVRDDMKPSDNISTNTNIHEPQYINYSSIPSLQDSIIKQENFNSVNDANITSNKEGFNSIWKIPQNDIPQTESPLKTVDSSIQPIESNIKMTLEDNNVTSNPSEFTPNMVNSEISNLPKDKSGIPEFTPADPNLSFESSSSLPFLLRHMPLASIPDIFITPTPVVTISEKEQDILDLIAEQVVTDYNILGNLGIPKIAYRGVKDCQEGLITTTMLQLFSTFDRLNGNDTISKFYNMKQPYVFVKKHHELIKVKHDSQPFIKFLNFRPPNGIKNFKSLLLSSSFKEDCLSFAPTLSQTYINQELGFCELLKLTNEDPPGLMYLKAFDKNKLLLLAAQIVSYCSNNKNSIKNVPPILIILPLDNATLTELVDKANIFQVIKNEVCAKMPNIELYLKVIPMDFIRNVLVTVDQYVNVAISIYNMLPPKSVKFTHIAHTLPEKVNFRTMQQQQMQQQQQQQQQQQNNSTGSSSIIYYDSYIHLAYSRSVDKEWVFAALSDSYGQGSMTKTWYVGNSRGKFDDACNQIWNIALNLASKKFGKICLILTRLNGILPDDELMNWRRLSGRNIHLAVVCVDDNSKISFIDEDKLYPSFKPIYKDTRFGGRMDMTRLYDYEIRDIDQDIHGIVFQHPFPLAHSQHRCAIRSGALIKFKKCDGDTVWDKFAVNLLNCPHSDSTQLLETILEEFRNLAALNVWYGLSDGEDGHIPWHILAVKKMMNTLVHTRVKIANTSAATVHTATSSSIILSDK
partner: B1 partner

Variants of: B1
Details: with tfs2_yeast DST1, P07273

Row | Variant | effect of a mutation on the interaction
1 | F387A | disrupting interaction
2 | L386A | disrupting interaction

Variants of: B2
Details: with iws1_yeast SPN1, Q06505

Row | Variant | effect of a mutation on the interaction
3 | I248A | disrupting interaction
4 | F249A | disrupting interaction

Variants of: B3
Details: with tfs2_yeast DST1, P07273

Row | Variant | effect of a mutation on the interaction
5 | F484A | decreasing interaction
6 | L483A | decreasing interaction

Reference: IntAct's records for PubMed 21057455
